Results taken from the supplement of paper PMC9112550, “Optimization of the antimicrobial peptide Bac7 by deep mutational scanning” (BMC Biology, 2022).

Test system: Escherichia coli TOP10
Test: shrunken log2 fold change of peptide-encoding DNA abundance (4.5 h post-induction vs induction); higher = less antimicrobial activity (less host growth inhibition)
Conditions: time post-induction: 4.5 h; library: site-saturation at positions 5, 18, 19, 20
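Note: peptides expressed intracellularly from a pBAD plasmid library in pooled LB shake-flask culture, induced with 0.3% L-arabinose, DNA abundance read by NGS, three biological replicates, DESeq2 with apeglm shrinkage.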

Sequence	shrunken log2 fold change
RRIRVRPPRLPRPRPRPIKPPRP	-0.15
RRIRDRPPRLPRPRPRPQLCPRP	0.365
RRIRHRPPRLPRPRPRPSYSPRP	-0.314
RRIRPRPPRLPRPRPRPYLYPRP	-0.672
RRIRNRPPRLPRPRPRPSEAPRP	0.00843
RRIRNRPPRLPRPRPRPMYTPRP	-0.48
RRIRPRPPRLPRPRPRPFFAPRP	0.468
RRIRARPPRLPRPRPRPVKLPRP	-0.59
RRIRVRPPRLPRPRPRPAGLPRP	0.192
RRIRNRPPRLPRPRPRPSRVPRP	0.0304
RRIRVRPPRLPRPRPRPDCPPRP	-0.104
RRIRKRPPRLPRPRPRPRIDPRP	-0.154
RRIRHRPPRLPRPRPRPHPPPRP	0.261
RRIRYRPPRLPRPRPRPVQRPRP	-0.0294
RRIRKRPPRLPRPRPRPMYRPRP	0.0629
RRIRLRPPRLPRPRPRPPDLPRP	0.169
RRIRYRPPRLPRPRPRPVTNPRP	-0.015
RRIRCRPPRLPRPRPRPIDIPRP	0.0768
RRIRMRPPRLPRPRPRPDQAPRP	0.357
RRIRFRPPRLPRPRPRPDPFPRP	-0.341
RRIRYRPPRLPRPRPRPNFRPRP	-0.425
RRIRLRPPRLPRPRPRPHWAPRP	-0.177
RRIRPRPPRLPRPRPRPWHMPRP	-0.0632
RRIRYRPPRLPRPRPRPRARPRP	2.17
RRIRIRPPRLPRPRPRPWGGPRP	0.297

Sequence	shrunken log2 fold change
RRIRMRPPRLPRPRPRPHDPPRP	0.000689
RRIRTRPPRLPRPRPRPCIPPRP	-1.3
RRIRSRPPRLPRPRPRPTTLPRP	-0.0324
RRIRNRPPRLPRPRPRPKFVPRP	-0.0126
RRIRARPPRLPRPRPRPSCKPRP	-0.291
RRIRKRPPRLPRPRPRPHFEPRP	0.101
RRIRWRPPRLPRPRPRPCMAPRP	0.312
RRIRVRPPRLPRPRPRPIAFPRP	-0.207
RRIRFRPPRLPRPRPRPIKEPRP	-0.113
RRIRSRPPRLPRPRPRPPAKPRP	1.05
RRIRLRPPRLPRPRPRPNICPRP	-0.132
RRIRIRPPRLPRPRPRPNPYPRP	-0.659
RRIRPRPPRLPRPRPRPMMHPRP	-0.0262
RRIRFRPPRLPRPRPRPKCKPRP	0.00614
RRIRWRPPRLPRPRPRPSRCPRP	0.0613
RRIRMRPPRLPRPRPRPSQMPRP	0.344
RRIRARPPRLPRPRPRPFDLPRP	0.0229
RRIRVRPPRLPRPRPRPCFDPRP	-0.121
RRIRPRPPRLPRPRPRPIKYPRP	0.32
RRIRYRPPRLPRPRPRPPMFPRP	-0.806
RRIRLRPPRLPRPRPRPDNPPRP	-0.231
RRIRGRPPRLPRPRPRPNYFPRP	0.0394
RRIRCRPPRLPRPRPRPTLMPRP	-0.0222
RRIRGRPPRLPRPRPRPELLPRP	0.334
RRIRERPPRLPRPRPRPGDSPRP	-1.02

Sequence	shrunken log2 fold change
RRIRHRPPRLPRPRPRPRAWPRP	0.0709
RRIRPRPPRLPRPRPRPHYPPRP	-0.0221
RRIRARPPRLPRPRPRPDIEPRP	-0.0212
RRIRHRPPRLPRPRPRPNWVPRP	-0.126
RRIRWRPPRLPRPRPRPRHGPRP	-0.192
RRIRTRPPRLPRPRPRPMVWPRP	0.57
RRIRRRPPRLPRPRPRPGTFPRP	-0.578
RRIRRRPPRLPRPRPRPMNYPRP	-0.0341
RRIRTRPPRLPRPRPRPGKVPRP	0.145
RRIRIRPPRLPRPRPRPCEEPRP	0.0173
RRIRHRPPRLPRPRPRPNNIPRP	-1.2
RRIRTRPPRLPRPRPRPHCMPRP	-0.153
RRIRQRPPRLPRPRPRPSRAPRP	0.19
RRIRDRPPRLPRPRPRPPWRPRP	0.499
RRIRERPPRLPRPRPRPFRKPRP	-0.534
RRIRKRPPRLPRPRPRPPYDPRP	-0.0658
RRIRKRPPRLPRPRPRPVSKPRP	0.128
RRIRSRPPRLPRPRPRPMVHPRP	-0.026
RRIRRRPPRLPRPRPRPVLKPRP	0.267
RRIRSRPPRLPRPRPRPRRPPRP	0.364
RRIRERPPRLPRPRPRPAAIPRP	-0.215
RRIRVRPPRLPRPRPRPMHDPRP	-0.134
RRIRVRPPRLPRPRPRPANWPRP	0.224
RRIRCRPPRLPRPRPRPGALPRP	0.264
RRIRPRPPRLPRPRPRPIPQPRP	-0.321

Sequence	shrunken log2 fold change
RRIRWRPPRLPRPRPRPCLWPRP	0.0333
RRIRMRPPRLPRPRPRPLSEPRP	0.511
RRIRERPPRLPRPRPRPCPAPRP	-0.224
RRIRSRPPRLPRPRPRPANGPRP	-0.0714
RRIRERPPRLPRPRPRPITLPRP	0.0653
RRIRRRPPRLPRPRPRPQNPPRP	0.214
RRIRRRPPRLPRPRPRPCRMPRP	0.0963
RRIRPRPPRLPRPRPRPHYGPRP	-0.569
RRIRRRPPRLPRPRPRPHDIPRP	-0.127
RRIRGRPPRLPRPRPRPRDTPRP	0.649
RRIRNRPPRLPRPRPRPNRKPRP	2.2
RRIRCRPPRLPRPRPRPEWYPRP	-0.256
RRIRDRPPRLPRPRPRPHCYPRP	-0.106
RRIRYRPPRLPRPRPRPHGLPRP	0.0126
RRIRPRPPRLPRPRPRPHAMPRP	-0.0838
RRIRKRPPRLPRPRPRPSCPPRP	-0.0238
RRIRGRPPRLPRPRPRPWCHPRP	-0.0582
RRIRWRPPRLPRPRPRPHDGPRP	-0.00986
RRIRRRPPRLPRPRPRPWKQPRP	-0.0204
RRIRWRPPRLPRPRPRPCPNPRP	-0.184
RRIRYRPPRLPRPRPRPWEAPRP	-0.271
RRIRLRPPRLPRPRPRPRERPRP	0.612
RRIRCRPPRLPRPRPRPKSLPRP	-0.191
RRIRPRPPRLPRPRPRPAAGPRP	0.287
RRIRARPPRLPRPRPRPIRKPRP	0.0897

Sequence	shrunken log2 fold change
RRIRWRPPRLPRPRPRPFKFPRP	-0.174
RRIRDRPPRLPRPRPRPREWPRP	-0.00146
RRIRCRPPRLPRPRPRPMYCPRP	-1.66
RRIRCRPPRLPRPRPRPSGWPRP	0.0712
RRIRSRPPRLPRPRPRPKWDPRP	0.172
RRIRVRPPRLPRPRPRPYYLPRP	-0.286
RRIRMRPPRLPRPRPRPCCVPRP	0.166
RRIRPRPPRLPRPRPRPTPLPRP	0.453
RRIRVRPPRLPRPRPRPCKRPRP	-0.196
RRIRVRPPRLPRPRPRPEWIPRP	-0.0835
RRIRSRPPRLPRPRPRPSFSPRP	-0.351
RRIRNRPPRLPRPRPRPPAWPRP	0.369
RRIRQRPPRLPRPRPRPYRLPRP	-0.19
RRIRWRPPRLPRPRPRPLVGPRP	0.282
RRIRCRPPRLPRPRPRPCQPPRP	-0.149
RRIRSRPPRLPRPRPRPWDIPRP	-0.211
RRIRLRPPRLPRPRPRPTDEPRP	-0.111
RRIRARPPRLPRPRPRPCPKPRP	-0.0619
RRIRVRPPRLPRPRPRPLLDPRP	0.157
RRIRKRPPRLPRPRPRPECRPRP	0.313
RRIRIRPPRLPRPRPRPGMIPRP	-0.309
RRIRCRPPRLPRPRPRPHNLPRP	-0.592
RRIRKRPPRLPRPRPRPLKHPRP	0.0711
RRIRKRPPRLPRPRPRPHFWPRP	0.188
RRIRQRPPRLPRPRPRPQYIPRP	-0.0838

Sequence	shrunken log2 fold change
RRIRWRPPRLPRPRPRPMKMPRP	-0.0851
RRIRCRPPRLPRPRPRPTCWPRP	0.15
RRIRCRPPRLPRPRPRPVIFPRP	-0.408
RRIRIRPPRLPRPRPRPQALPRP	-0.0788
RRIRMRPPRLPRPRPRPRNRPRP	0.687
RRIRPRPPRLPRPRPRPDMLPRP	-0.147
RRIRRRPPRLPRPRPRPITKPRP	0.165
RRIRKRPPRLPRPRPRPDVSPRP	-0.382
RRIRARPPRLPRPRPRPNWRPRP	0.883
RRIRHRPPRLPRPRPRPAMHPRP	0.0521
RRIRVRPPRLPRPRPRPILYPRP	0.0692
RRIRMRPPRLPRPRPRPDGVPRP	0.0632
RRIRLRPPRLPRPRPRPMKLPRP	-0.187
RRIRRRPPRLPRPRPRPVTVPRP	0.124
RRIRIRPPRLPRPRPRPQHRPRP	-0.116
RRIRTRPPRLPRPRPRPANHPRP	-0.179
RRIRPRPPRLPRPRPRPVLSPRP	0.076
RRIRTRPPRLPRPRPRPTWSPRP	0.256
RRIRFRPPRLPRPRPRPTCCPRP	-0.0828
RRIRGRPPRLPRPRPRPHACPRP	-0.0193
RRIRARPPRLPRPRPRPIYDPRP	-0.138
RRIRMRPPRLPRPRPRPVPFPRP	0.179
RRIRARPPRLPRPRPRPERCPRP	1.09
RRIRRRPPRLPRPRPRPYGYPRP	0.0179
RRIRDRPPRLPRPRPRPHCQPRP	-0.146
